In data set [1] the target is T1, pN-TALER IV-1-EE2 (GinL7C7-EE2-TALE13) (synthetic).
T1 chain: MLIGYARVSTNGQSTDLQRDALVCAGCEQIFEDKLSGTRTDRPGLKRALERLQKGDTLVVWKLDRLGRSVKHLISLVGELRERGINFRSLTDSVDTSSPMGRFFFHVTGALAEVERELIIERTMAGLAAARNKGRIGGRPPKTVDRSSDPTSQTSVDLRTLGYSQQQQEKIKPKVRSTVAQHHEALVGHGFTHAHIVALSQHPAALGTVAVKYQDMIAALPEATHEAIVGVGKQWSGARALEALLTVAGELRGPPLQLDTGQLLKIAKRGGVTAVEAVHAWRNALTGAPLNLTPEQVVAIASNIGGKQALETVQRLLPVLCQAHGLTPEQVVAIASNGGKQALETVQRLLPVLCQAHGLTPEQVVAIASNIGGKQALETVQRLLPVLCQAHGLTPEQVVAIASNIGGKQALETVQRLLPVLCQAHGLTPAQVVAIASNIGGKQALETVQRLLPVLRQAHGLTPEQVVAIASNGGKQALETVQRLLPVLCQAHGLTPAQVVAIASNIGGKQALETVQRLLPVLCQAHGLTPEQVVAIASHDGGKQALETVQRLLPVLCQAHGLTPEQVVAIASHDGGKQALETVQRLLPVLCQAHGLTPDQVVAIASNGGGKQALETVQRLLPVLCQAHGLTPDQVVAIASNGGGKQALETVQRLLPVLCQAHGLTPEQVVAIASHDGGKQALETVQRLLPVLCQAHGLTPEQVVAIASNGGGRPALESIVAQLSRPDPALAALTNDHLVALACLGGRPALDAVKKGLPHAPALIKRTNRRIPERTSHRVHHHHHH
The data set can be described thus: cell_activity; E. coli. As to conditions: tags: 6-His. From the text: To determine how much of the Gin20 sequence is required for recombination when the central sequence is maintained at a permitted length, N-TALER reporters were generated with a 20 bp recombinase central sequence between the TALE binding sites, where either the central 12 bp, or the central 10 bp, or the central 8 bp of the recombinase core sequence were held constant, and the remaining nucleotides were different from the Gin sequence. The N-TALER reporter with 12 bp was designated R45, the N-TALER reporter with 10 bp was designated R46, and the N-TALER reporter with 8 bp was designated R47. A N-TALER reporter with a 10 bp site 1 and a 12 bp site 2 was designated R46B, and a N-TALER reporter with a T and an A flanking the central AT di-nucleotide was designated R48 (see Table 33). The various reporters, including the pSC101 Gin20TALE13+0 were co-transformed with either sN-TALER-IV-1 or pN-TALER-IV-1 and recombination, as determined by colony color, was scored (Table 33). For purposes of comparison, the GinE site that was used in the generation of the GinL7C7-EE2 recombinase domain (Gersbach et al., 2010) was also included.
To confirm that white colonies resulted from recombination, the colonies were analyzed by colony PCR and sequencing of the PCR product. For the reporter that retained 12 bp from the Gin site, 8 of 8 colonies analyzed had the predicted recombination product for both the sN-TALER-IV-1 chimera and the pN-TALER-IV-1chimera (16 colonies total analyzed, 8 each). Likewise, for the reporter that retained 8 bp from the Gin site co-transformed with the pN-TALER-IV-1 chimera, 14 of 14 colonies analyzed had the predicted recombination product.

Data set [2] addresses T1, pN-TALER IV-1-EE2 (GinL7C7-EE2-TALE13). Nature of the data set: cell_activity; E. coli. As to conditions: tags: 6-His. The procedure:
(§1) To test for recombination, E. coli DH5alpha cells were co-transformed with different combinations of TALER expression construct and TALER reporter construct pairs (Tables 6 and 7). The N-TALER expression and reporter constructs were in an approximate 1:1 mass ratio during the transformation. The co-transformed bacteria were plated on media with chloramphenicol, kanamycin, and X-gal then incubated at 37° C. for 18 to 36 hours. Control samples consisted of transformations using the reporter construct alone. Control transformants were similarly plated. The bacterial transformation protocol was either heat shock or electroporation per standard molecular biology techniques.
Two additional N-TALERs, based on N-TALER IV-1, were constructed wherein the GinH106Y recombinase catalytic domain was replaced with either the GinL7C7-EE2 catalytic domain or the GinL7C7-EE3 permissive recombinase catalytic domain. These N-TALERs were labeled pN-TALER IV-1-EE2 (SEQ ID NO:41) and pN-TALER IV-1-EE3 (SEQ ID NO:45), respectively. pN-TALER IV-1-EE2 was tested in combination with seventeen N-TALER reporter constructs and pN-TALER IV-1-EE3 was tested with three reporter constructs (Table 10).

Data set [3] has as its target T2, sN-TALER IV-2 (GinH106Y-TALE13) (synthetic).
T2 chain: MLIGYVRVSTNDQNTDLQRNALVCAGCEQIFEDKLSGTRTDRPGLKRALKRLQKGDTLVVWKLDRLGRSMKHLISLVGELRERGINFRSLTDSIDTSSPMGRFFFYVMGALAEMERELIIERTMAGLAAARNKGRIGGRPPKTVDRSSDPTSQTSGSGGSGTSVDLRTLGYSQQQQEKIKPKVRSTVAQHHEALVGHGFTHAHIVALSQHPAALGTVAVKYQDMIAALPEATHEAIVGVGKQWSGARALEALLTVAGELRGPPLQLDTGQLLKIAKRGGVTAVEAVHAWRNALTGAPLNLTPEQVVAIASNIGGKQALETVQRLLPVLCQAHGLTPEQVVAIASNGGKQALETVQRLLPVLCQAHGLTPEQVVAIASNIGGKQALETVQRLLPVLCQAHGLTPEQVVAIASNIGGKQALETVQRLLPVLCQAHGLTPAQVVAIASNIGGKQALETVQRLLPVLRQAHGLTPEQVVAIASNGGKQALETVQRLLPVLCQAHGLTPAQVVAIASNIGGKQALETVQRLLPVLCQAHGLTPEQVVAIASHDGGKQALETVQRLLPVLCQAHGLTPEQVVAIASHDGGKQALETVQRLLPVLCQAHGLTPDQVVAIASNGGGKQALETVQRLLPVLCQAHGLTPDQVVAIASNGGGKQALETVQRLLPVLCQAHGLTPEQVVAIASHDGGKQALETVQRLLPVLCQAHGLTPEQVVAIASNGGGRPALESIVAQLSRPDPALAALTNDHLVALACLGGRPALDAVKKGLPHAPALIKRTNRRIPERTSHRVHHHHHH
Nature of the data set: cell_activity; E. coli. As to conditions: tags: 6-His. The procedure:
as §1

Data set [4] concerns the target T3, sN-TALER IV-1 (GinH106Y-TALE13) (synthetic).
T3 chain: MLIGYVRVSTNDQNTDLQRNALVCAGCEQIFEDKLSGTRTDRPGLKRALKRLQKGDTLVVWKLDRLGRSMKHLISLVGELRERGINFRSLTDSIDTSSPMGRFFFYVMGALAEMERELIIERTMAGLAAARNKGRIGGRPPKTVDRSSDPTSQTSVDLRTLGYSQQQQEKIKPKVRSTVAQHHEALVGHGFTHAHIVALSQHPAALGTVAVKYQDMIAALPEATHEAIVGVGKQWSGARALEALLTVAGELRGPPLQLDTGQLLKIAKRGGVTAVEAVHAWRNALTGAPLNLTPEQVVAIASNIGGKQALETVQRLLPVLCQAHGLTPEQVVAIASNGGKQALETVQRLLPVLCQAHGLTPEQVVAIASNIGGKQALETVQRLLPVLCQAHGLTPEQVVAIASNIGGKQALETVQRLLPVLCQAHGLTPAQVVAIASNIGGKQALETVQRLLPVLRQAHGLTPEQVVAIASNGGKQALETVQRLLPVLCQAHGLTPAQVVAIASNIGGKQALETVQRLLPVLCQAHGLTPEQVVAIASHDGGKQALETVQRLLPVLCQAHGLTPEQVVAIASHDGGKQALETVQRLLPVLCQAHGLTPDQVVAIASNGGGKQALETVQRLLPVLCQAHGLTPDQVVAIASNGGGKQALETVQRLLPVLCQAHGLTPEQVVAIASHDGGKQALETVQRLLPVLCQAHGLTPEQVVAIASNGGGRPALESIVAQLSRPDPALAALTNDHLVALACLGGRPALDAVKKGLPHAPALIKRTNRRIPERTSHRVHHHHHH
The data set can be described thus: cell_activity; E. coli. As to conditions: tags: 6-His; chain copies: 2 per site, tetramer in synapsis (stated). The procedure:
as §1

For data set [5], the target named is T3, sN-TALER IV-1 (GinH106Y-TALE13). Nature of the data set: cell_activity; E. coli; sequenced. As to conditions: tags: 6-His; chain copies: 2 per site, tetramer in synapsis (stated). The procedure: as §1
PCR was used to confirm that the predicted recombination had occurred in colonies which were white or sectored. PCR primers were designed so that a PCR product of approximately 877 bp (depending on the length of the spacers) would be produced from the non-recombined reporter constructs, and a PCR product of approximately 470 bp would be produced from reporter constructs that had undergone N-TALER-mediated recombination. Standard colony PCR was performed on white, blue, and sectored colonies from several plates representing different pairs of N-TALER expression construct and reporter construct co-transformation combinations.
To confirm that the recombination occurred as predicted, several of the PCR products were sequenced. Sequencing results for PCR products generated from white colonies from the sN-TALER IV-1 and Gin18TALE+1; sN-TALER IV-1 and Gin20TALE+0; or sN-TALER IV-1 and Gin20TALE+10 reporter constructs are shown in FIG. 7. No mismatches were detected relative to the predicted recombinase core sequence in any of the PCR products sequenced thereby confirming a base-perfect recombination with N-TALERs (the few single-nucleotide mismatches detected in the sN-TALER IV-1 and Gin20TALE+0 combination were rechecked and consequently dismissed as sequencing error).

From patent US20140193915, “COMPOSITIONS AND METHODS FOR CUSTOM SITE-SPECIFIC DNA RECOMBINASES” (Monsanto Technology, LLC, published 2014) come the findings set out here.

B1: R47 (8bp) (dsDNA)
DNA 1: AGAAGGTATTTATATCTCTGACCATGGTCACACTTATAAATACCTTCT
DNA 2: AGAAGGTATTTATAAGTGTGACCATGGTCAGAGATATAAATACCTTCT
On to B1, for which the activity in data set [1] was 1.5 score.

B2: Gin20TALE+6 (dsDNA)
DNA 1: AGAAGGTATTTATATAGTTATCCAAAACCATGGTTTACAGGACGTATATAAATACCTTCT
DNA 2: AGAAGGTATTTATATACGTCCTGTAAACCATGGTTTTGGATAACTATATAAATACCTTCT
For the molecule B2, in data set [2], the activity amounted to 2 score.

B3: Gin20TALE+3 (dsDNA)
DNA 1: AGAAGGTATTTATATAATCCAAAACCATGGTTTACAGGTATATAAATACCTTCT
DNA 2: AGAAGGTATTTATATACCTGTAAACCATGGTTTTGGATTATATAAATACCTTCT
On to B3, for which the activity was found to be 3 score in data set [3], 3 score in data set [4] and 1 score in data set [2].

B4: Gin20TALE+10 (dsDNA)
DNA 1: AGAAGGTATTTATATAGGCACTTATCCAAAACCATGGTTTACAGGACCACGGTATATAAATACCTTCT
DNA 2: AGAAGGTATTTATATACCGTGGTCCTGTAAACCATGGTTTTGGATAAGTGCCTATATAAATACCTTCT
For B4, the activity was found to be 1.5 score in data set [5], 1 score in data set [3] and 1 score in data set [2].

B5: Gin20TALE+1 (dsDNA)
DNA 1: AGAAGGTATTTATATTCCAAAACCATGGTTTACAGATATAAATACCTTCT
DNA 2: AGAAGGTATTTATATCTGTAAACCATGGTTTTGGAATATAAATACCTTCT
Take B5: the activity was found to be 1 score in data set [3], 2 score in data set [4] and 1 score in data set [2].

B6: Gin20TALE+4 (dsDNA)
DNA 1: AGAAGGTATTTATATATATCCAAAACCATGGTTTACAGGCTATATAAATACCTTCT
DNA 2: AGAAGGTATTTATATAGCCTGTAAACCATGGTTTTGGATATATATAAATACCTTCT
Consider B6, for which the activity in data set [3] was 4 score; in data set [2], 1.5 score.

B7: Gin20TALE+7 (dsDNA)
DNA 1: AGAAGGTATTTATATAGGTTATCCAAAACCATGGTTTACAGGACGGTATATAAATACCTTCT
DNA 2: AGAAGGTATTTATATACCGTCCTGTAAACCATGGTTTTGGATAACCTATATAAATACCTTCT
For B7, the activity in data set [2] amounted to 2.5 score.

B8: Gin20TALE+9 (dsDNA)
DNA 1: AGAAGGTATTTATATAGGCATTATCCAAAACCATGGTTTACAGGACACGGTATATAAATACCTTCT
DNA 2: AGAAGGTATTTATATACCGTGTCCTGTAAACCATGGTTTTGGATAATGCCTATATAAATACCTTCT
For B8, the activity in data set [4] and in data set [2] was 2 score each time.

B9: Gin20TALE+2 (dsDNA)
DNA 1: AGAAGGTATTTATATATCCAAAACCATGGTTTACAGTATATAAATACCTTCT
DNA 2: AGAAGGTATTTATATACTGTAAACCATGGTTTTGGATATATAAATACCTTCT
For B9, the activity in data set [4] is 3 score; in data set [2] it was 1 score.
